T1: human ELP123 (Homo sapiens, UniProt Q9H9T3)
T1 construct: gene ELP3; recombinant ELP123 subcomplex (1:1:1, two lobes), codon-optimized ORFs, C-terminal Twin-Strep-Tag on ELP3, insect cells (SuperSf9-3); ELP1 148 kDa, ELP2 93 kDa, ELP3-TST 65 kDa; with Elongator complex protein 1; Elongator complex protein 2
T1 sequence (Q9H9T3 1-547): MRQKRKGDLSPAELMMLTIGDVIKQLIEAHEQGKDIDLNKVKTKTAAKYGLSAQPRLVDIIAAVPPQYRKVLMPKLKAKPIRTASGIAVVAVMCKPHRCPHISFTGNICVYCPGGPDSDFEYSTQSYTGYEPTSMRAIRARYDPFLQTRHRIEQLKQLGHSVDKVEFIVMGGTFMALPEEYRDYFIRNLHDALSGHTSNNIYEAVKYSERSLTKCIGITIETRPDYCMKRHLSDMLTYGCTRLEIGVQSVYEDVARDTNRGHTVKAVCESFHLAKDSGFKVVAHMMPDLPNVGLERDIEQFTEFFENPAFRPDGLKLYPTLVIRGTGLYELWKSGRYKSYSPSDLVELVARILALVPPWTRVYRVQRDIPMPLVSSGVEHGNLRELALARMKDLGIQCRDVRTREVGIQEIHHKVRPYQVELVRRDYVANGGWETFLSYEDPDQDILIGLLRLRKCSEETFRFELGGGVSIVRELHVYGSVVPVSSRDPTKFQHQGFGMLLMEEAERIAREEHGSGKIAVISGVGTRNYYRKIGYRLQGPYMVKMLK
T1 sequence (O95163 1-1332 partner): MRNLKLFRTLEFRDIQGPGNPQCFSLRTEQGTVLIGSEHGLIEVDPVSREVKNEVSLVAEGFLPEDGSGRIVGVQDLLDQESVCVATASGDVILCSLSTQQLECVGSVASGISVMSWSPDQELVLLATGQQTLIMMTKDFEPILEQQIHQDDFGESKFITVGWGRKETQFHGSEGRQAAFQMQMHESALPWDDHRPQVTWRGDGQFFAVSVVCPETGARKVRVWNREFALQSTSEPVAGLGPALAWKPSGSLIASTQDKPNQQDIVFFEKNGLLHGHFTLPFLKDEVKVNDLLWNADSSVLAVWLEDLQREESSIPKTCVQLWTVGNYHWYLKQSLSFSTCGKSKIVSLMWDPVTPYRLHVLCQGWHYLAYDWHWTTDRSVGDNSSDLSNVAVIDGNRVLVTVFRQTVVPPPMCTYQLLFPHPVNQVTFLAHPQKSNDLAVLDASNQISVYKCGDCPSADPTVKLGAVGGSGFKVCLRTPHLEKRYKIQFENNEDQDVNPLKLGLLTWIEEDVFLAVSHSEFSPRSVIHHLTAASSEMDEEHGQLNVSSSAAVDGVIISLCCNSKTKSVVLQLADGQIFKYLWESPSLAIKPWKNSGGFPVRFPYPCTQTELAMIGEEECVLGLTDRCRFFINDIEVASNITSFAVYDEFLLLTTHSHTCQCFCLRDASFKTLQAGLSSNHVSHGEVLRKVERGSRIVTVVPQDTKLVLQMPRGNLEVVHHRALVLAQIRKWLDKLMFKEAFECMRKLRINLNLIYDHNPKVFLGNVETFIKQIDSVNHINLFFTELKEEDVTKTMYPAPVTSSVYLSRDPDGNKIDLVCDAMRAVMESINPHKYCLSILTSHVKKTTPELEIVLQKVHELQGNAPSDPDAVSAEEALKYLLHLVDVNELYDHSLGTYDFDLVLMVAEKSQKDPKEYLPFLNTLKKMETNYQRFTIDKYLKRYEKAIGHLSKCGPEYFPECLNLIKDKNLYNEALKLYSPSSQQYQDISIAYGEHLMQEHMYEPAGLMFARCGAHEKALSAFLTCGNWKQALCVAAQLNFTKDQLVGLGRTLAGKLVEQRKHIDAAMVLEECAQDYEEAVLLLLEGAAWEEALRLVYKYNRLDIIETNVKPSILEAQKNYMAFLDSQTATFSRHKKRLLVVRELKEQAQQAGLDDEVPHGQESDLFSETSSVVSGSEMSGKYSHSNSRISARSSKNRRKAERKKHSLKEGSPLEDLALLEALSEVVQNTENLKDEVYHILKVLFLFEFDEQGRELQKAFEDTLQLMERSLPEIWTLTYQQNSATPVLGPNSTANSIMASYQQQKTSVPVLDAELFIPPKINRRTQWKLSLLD
T1 sequence (Q6IA86 1-826 partner): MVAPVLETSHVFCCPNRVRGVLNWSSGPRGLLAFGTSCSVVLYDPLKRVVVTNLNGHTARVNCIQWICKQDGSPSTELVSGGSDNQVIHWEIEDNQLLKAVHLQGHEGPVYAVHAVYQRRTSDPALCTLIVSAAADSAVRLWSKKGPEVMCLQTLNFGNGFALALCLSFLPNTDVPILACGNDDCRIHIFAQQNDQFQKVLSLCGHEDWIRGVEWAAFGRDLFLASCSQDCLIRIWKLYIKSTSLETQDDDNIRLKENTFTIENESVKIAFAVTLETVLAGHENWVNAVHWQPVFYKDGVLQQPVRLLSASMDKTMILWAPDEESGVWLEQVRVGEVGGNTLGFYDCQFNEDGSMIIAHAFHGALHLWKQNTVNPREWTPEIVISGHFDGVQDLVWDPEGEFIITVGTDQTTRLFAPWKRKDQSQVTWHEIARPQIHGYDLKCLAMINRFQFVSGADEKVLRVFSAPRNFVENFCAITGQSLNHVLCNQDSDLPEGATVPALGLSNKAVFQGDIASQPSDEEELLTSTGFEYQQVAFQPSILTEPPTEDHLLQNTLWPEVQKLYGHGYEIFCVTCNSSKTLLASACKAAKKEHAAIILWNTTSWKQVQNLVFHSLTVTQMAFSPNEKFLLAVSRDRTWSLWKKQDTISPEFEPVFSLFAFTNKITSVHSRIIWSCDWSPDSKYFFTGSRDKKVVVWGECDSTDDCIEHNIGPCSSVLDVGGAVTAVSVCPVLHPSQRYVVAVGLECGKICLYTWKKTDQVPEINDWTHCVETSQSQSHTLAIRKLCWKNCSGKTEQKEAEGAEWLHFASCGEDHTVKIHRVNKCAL


Tests used:
[1] = target: T1, human ELP123; test: cryo-EM structure ([…] Å); type: binding; settings: with tRNA-GlnUUG and SAM; KAT domain of ELP3; pH 7.5; hydrolysis induced by tRNA
[2] = target: ELP1;ELP2;ELP3 K164A (Homo sapiens;Homo sapiens;Homo sapiens, UniProt O95163;Q6IA86;Q9H9T3 1-1332;1-826;1-547, ||K164A); test: MST; MST: 20 mM HEPES pH 7.5, 100 mM NaCl, 5 mM DTT, 0.05% Tween 20; incubated at 4 C 30 min, measured at 25 C; Cy5-tRNA 14 or 30 nM. Cryo-EM: 20 mM HEPES pH 7.5, 100 mM NaCl, 2 mM MgCl2, 2 mM DTT; settings: protein: recombinant;recombinant;recombinant; tags: ;;C-terminal Twin-Strep-Tag; chain copies: 2;2;2; label: internal Cy5 (5% Cy5-CTP) for MST; tRNA fold
[3] = target: ELP1;ELP2;ELP3 R242K (Homo sapiens;Homo sapiens;Homo sapiens, UniProt O95163;Q6IA86;Q9H9T3 1-1332;1-826;1-547, ||R242K); test: as above; settings: protein: recombinant;recombinant;recombinant; tags: ;;C-terminal Twin-Strep-Tag; chain copies: 2;2;2; label: internal Cy5 (5% Cy5-CTP) for MST; tRNA fold
[4] = target: ELP1;ELP2;ELP3 Y529A/Y530A (Homo sapiens;Homo sapiens;Homo sapiens, UniProt O95163;Q6IA86;Q9H9T3 1-1332;1-826;1-547, ||Y529A;Y530A); test: as above; settings: protein: recombinant;recombinant;recombinant; tags: ;;C-terminal Twin-Strep-Tag; chain copies: 2;2;2; label: internal Cy5 (5% Cy5-CTP) for MST; tRNA fold
[5] = target: ELP1;ELP2;ELP3 wild type (Homo sapiens;Homo sapiens;Homo sapiens, UniProt O95163;Q6IA86;Q9H9T3 1-1332;1-826;1-547, ||); test: as above; settings: protein: recombinant;recombinant;recombinant; tags: ;;C-terminal Twin-Strep-Tag; chain copies: 2;2;2; label: internal Cy5 (5% Cy5-CTP) for MST; tRNA fold
[6] = target: ELP1;ELP2;ELP3 E474A (Homo sapiens;Homo sapiens;Homo sapiens, UniProt O95163;Q6IA86;Q9H9T3 1-1332;1-826;1-547, ||E474A); test: as above; settings: protein: recombinant;recombinant;recombinant; tags: ;;C-terminal Twin-Strep-Tag; chain copies: 2;2;2; label: internal Cy5 (5% Cy5-CTP) for MST; tRNA fold
[7] = target: ELP1;ELP2;ELP3 R402T (Homo sapiens;Homo sapiens;Homo sapiens, UniProt O95163;Q6IA86;Q9H9T3 1-1332;1-826;1-547, ||R402T); test: as above; settings: protein: recombinant;recombinant;recombinant; tags: ;;C-terminal Twin-Strep-Tag; chain copies: 2;2;2; label: internal Cy5 (5% Cy5-CTP) for MST; tRNA fold
[8] = target: ELP1;ELP2;ELP3 Y363A (Homo sapiens;Homo sapiens;Homo sapiens, UniProt O95163;Q6IA86;Q9H9T3 1-1332;1-826;1-547, ||Y363A); test: as above; settings: protein: recombinant;recombinant;recombinant; tags: ;;C-terminal Twin-Strep-Tag; chain copies: 2;2;2; label: internal Cy5 (5% Cy5-CTP) for MST; tRNA fold
[9] = target: ELP1;ELP2;ELP3 K280A (Homo sapiens;Homo sapiens;Homo sapiens, UniProt O95163;Q6IA86;Q9H9T3 1-1332;1-826;1-547, ||K280A); test: as above; settings: protein: recombinant;recombinant;recombinant; tags: ;;C-terminal Twin-Strep-Tag; chain copies: 2;2;2; label: internal Cy5 (5% Cy5-CTP) for MST; tRNA fold
[10] = target: ELP1;ELP2;ELP3 H476A (Homo sapiens;Homo sapiens;Homo sapiens, UniProt O95163;Q6IA86;Q9H9T3 1-1332;1-826;1-547, ||H476A); test: as above; settings: protein: recombinant;recombinant;recombinant; tags: ;;C-terminal Twin-Strep-Tag; chain copies: 2;2;2; label: internal Cy5 (5% Cy5-CTP) for MST; tRNA fold

Sequence of ELP1;ELP2;ELP3 Y529A/Y530A (Q9H9T3 whole entry Y529A/Y530A, chain 3 of 3, one chain of several): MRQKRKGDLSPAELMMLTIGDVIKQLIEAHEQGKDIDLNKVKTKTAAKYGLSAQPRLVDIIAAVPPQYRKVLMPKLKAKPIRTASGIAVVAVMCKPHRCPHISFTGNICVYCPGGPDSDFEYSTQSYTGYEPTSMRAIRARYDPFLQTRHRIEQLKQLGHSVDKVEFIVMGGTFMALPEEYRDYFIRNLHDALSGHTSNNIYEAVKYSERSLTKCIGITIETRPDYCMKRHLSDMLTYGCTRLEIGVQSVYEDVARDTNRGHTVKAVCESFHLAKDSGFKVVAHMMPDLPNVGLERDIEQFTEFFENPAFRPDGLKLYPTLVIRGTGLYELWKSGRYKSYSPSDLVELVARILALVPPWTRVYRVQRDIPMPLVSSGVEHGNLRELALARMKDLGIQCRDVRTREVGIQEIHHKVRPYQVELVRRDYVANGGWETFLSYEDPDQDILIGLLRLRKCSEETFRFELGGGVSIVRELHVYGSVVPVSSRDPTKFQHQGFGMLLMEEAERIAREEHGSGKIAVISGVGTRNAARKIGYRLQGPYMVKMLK

Molecule	cryo-EM structure (2.87 Å) [1]	binding result [2]	binding result [3]	Kd [4]	Kd [5]	binding result [6]	binding result [7]	binding result [8]	binding result [9]	binding result [10]
CC(=O)SCCNC(=O)CCNC(=O)[C@H](O)C(C)(C)COP(=O)(O)OP(=O)(O)OC[C@H]1O[C@@H](n2cnc3c(N)ncnc32)[C@H](O)[C@@H]1OP(=O)(O)O [acetyl-CoA]	well-resolved ligand density that unambiguously fits a complete acetyl-CoA molecule									
tRNAGlnUUG (structured_RNA) RNA: GGCCCCAUGGUGUAAUGGUUAGCACUCUGGACUUUGAAUCCAGCGAUCCGAGUUCAAAUCUCGGUGGGACCUCCA		binds	binds	94.7 ± 5.2 nM	37.6 ± 5.3 nM	binds	binds	binds	binds	binds

Reference: publication PMC11096365, “Cryo-EM structures of the human Elongator complex at work” (Nature Communications, 2024)
